Measurements from the DeepSol protein solubility set.

Experiment: soluble on expression in E. coli; label from the status in PepcDB or PDB records

| Sequence | soluble on expression in E. coli |
| --- | --- |
| MSLIRDMQLSRFSIPFAAPIRVGGQELNKRDGLLVAVRDDQGHTGWGEAAPLPGLDTISLDQCQGELCPIRKAFADQALNWDSFSLTAPMMGLCPEIPGLNPISAFGVESALAWLGLCSGQWGIAGADELGIAVNGLFVPSPDPDRLPAQAKQLKASGFSTVKIKIGRMDSDDEIRQILELDSLFNHKLALRLDANRSLDFAQYQSYFEALKHLNIEYVEEPLKPEYDFFEAAQIPWPLALDESLESYANLDEPFPKSLGAVILKPGSFQGVHGMAQAMEHLHTQGIKTVLSSSFNNTMGMSMLGLLANLYAPETAHGLDTLKYFQPSDLSLGLSIAKGRMAIPVDLFGGGLNLASGLMEEIAEGHHHHHH | soluble |
| MSLITVVIIDDDPFVTKSLQTILESTKEIRVLGIGHCAKDALVLYETHRPDVLLTDIRMPKQTGIDAAKEILAKFPKAILLLLTTFKDEEYIREAFSIGVKGYLIKQNLQAIIPSVKSAYNGQAVFGNEIIETFTQMMKNKPTIDSHAYASFSERELAIIKEVAAGKNNKEIADALYLSDGTVRNYISQLLEKLDLRDRTQLAIYFYQHLQEGHHHHHH | not soluble |
| MSLIVKFCGFKTESDIKKIKKLEVDAVGFIHYPDSKRHVSLKQLKYLAKIVPDHIEKVVVVVNPQMSTIKRIINQTDINTIQLHGNESIQLIRNIKKLNSKIRIIKAIPATRNLNNNIQKYKDEIDMFIIDTPSITYGGTGQSFDWKLLKKIKGVDFLIAGGLDFEKIKRLEIYSFGQCGYDISTGIESHNEKDFNKMTRILKFLKGDEGHHHHHH | not soluble |
| MSLIYSGKFRIGVQDEAALQMLHDPEKLGPCLPGVSSFERNDDGYSCKVRLDVSSMGSSYLSKISGKLAFSYLDSENRTIHVQGKGRIAGSSISFDLFISVNGGELIWKIDVNYGILIKMMGEEKIRDVTQANIDRSVKCLSSVLCQEGHHHHHH | soluble |
| MSLKAAVLHGTNDMRFEDIEIKPCESDEVKIKVMAAGICGSDPPRVLKHWKYPVPAIPGHEFSGVIAEVGKDVKNVKVGDRVVAIPFIPCNECEYCKRGLFSLCDDHGMLGAKSFGAFAEYVNIKATNVLPIGDMDFEDAAMIEPLAVAMHGVLNIGVQVGDTVAVMGSGTMGQLVIQGLKIAGAGTIIAVDISDNKLRESKELGADIIINAKDINPVEKIKELTGGKGVDIALECAGSKITQEQCLLITKKKSKIGFLGIAYSDITLSEEAFENIFRKELELKGFWNSYSAPFPGQEWTKGINLVNEGKIKLKEMVSHRFSLEDTYKAFEMIRDRKEEFNKILILPQGVEGHHHHHH | soluble |
| MSLKANFYKNRVCLNVLAGSVDNAADIYDAAEGHVLVGVLSKNYPDVDTAVEDMKKYSEVTNNAVSVGLGAGDPNQSMMVSLISQHVQPQHINQVFTGVATSRALAGQDKSIVNGLISPTGTVGMVKISTGPLSSRSEDAIVPVETAIAMLKDMGGSSVKYFPMGGLETREEFACVAKACADKDFWLEPTGGIDLENYEEIMQIALDAGVSKIIPHIYSSIIDKATGNTRPEDVKTLLDMTKKLLN | soluble |
| MSLKDINIGVVLPLTGTVAAYGQDVFNGIELANKLQPKLSNGDVIKLITIDTKGDKLETSNGVNRLIATDKVLGIIGEATTPNTIQAISIAEEKKIPLIAPVASGDKLLDKKKYASRVCFKDSFQGDKFATYVSKDLGLKNAVIIIDQSNVYSLGLARAFENSFKNNGGKIIKKLVINSGDKDFRAVVSQLKSLNPDFVYMPIYHPEAALIARQARQIGFDKLLVAGDGVNNQTFIDLGGSAVNGVIFTDSFDYNSPSTQLGKDFVAAYEKVKGTKELPAFSAMGADAYFVMLNAMNACVDNLSSECINSKIHQTKDFQAVGGVISIDESGNAIRSVVIKEIQNQKQNYKTIINEGHHHHHH | soluble |
| MSLKEANLLIDLRGEPGINCNGFCKFCYFRKVNKNNPQPFGCRYCQFTVGCDYCMYSVREINGDFIPLPFALMELQSSLLFKRYSKVNLTAGGDVSCYPQLEELCKAINNIGLKIHLGYTSGKGFDNVEIAKNLVDYGVDEVTFSVFSTNPKLRKEWMNDKNAETALKCLRYFCENCEVHCAIIVIPGVNDGEELKKTVSDLVDWGANAVILMRFANSEEQGLILGNAPLIEGIKPHSVEEFKNIVDEIHNEFGDYIRVTGTPLHDPVAGTPFALAKEENSHILERLKDKINGEATIITGNVAYPFLKKIFDETSVNVVKVNKDIADLITAKDLEKLDLKDVKETVFIPPKAFVHDRVAEEILRRDGVDRIVVRGVEQLTLDGEVSGIYTREEALKFEIEAFEELIGMINFFGMKKQEGHHHHHH | soluble |
| MSLKERFSPKMLSDITGVSIRTLHYYHEKGLLVPQQMSANGYRYYNVQDISKLQYILFLKELDLTLKQIQIYFEGDSDFRTKILHDNFYHIVKKRDRLNDIICTLEHHFHQDNEEIEVTTMQNFNLNEQYEKEAASKYGDTHYYQAYKDKQKSKDESEQQNHFEEINKQLNMFFDDMNQLYLNKVSILEASGKIKKLLCILKEQVPNCDNQFLEYIAQIYIEDERFVKFINKQRERGLNLYISDAIKTFIKEGHHHHHH | soluble |
| MSLKFMYSALLGNPVEHSISDELFEYLNHNIGVLDEYKHKKILVDSVCLEDKIKHLINDPKCIGLNITLPYKREVMRYIDNLDRVAEITGSVNNIYKSGNIITGTNTDWKGIYNTLVFFNISHITKCCVLGTGGTARAAIFALQKLQISPTVVYREPISENTRSLIKSFPDLKYITYKELADQQILNDMEIIINTTPVGMINYEESLPINFDHLDNVNYKDKYFMDVVFNPLHTKLHEYFGKKGAKIIDGLWVLIFQGIEAFSLWSDKINDGKYFFSKDDVVLIHTFLEGKIKGKEGHHHHHH | soluble |
| MSLKGRVAVRTVDAIPQTFAINGIFRISRGSKTSAQVIAVSIAESGYIGRGECVPYARYGETIESVMDQIRSMTPAIEAGMDLSELQSAMAPGAARNAVDCALWDLRAQKTRQSLASVIELGHELQPVLTAFTISLDAPAAMGKAAAVHEHLPILKLKLGGDGDLERVRAVRAAAPHARLMVDANEAWSIDHLRAFAPEFAAMGVELIEQPLPADADDFLKSFNSPVPLAADESCRTLMSLSKIVGKYEIANIKLDKAGGLTEALSLQAAARASGLGTMVGCMVATSLSMAPGIILAQRADVVHLDGPLLLAEDRTPSLRYSGATLYPPEPEVWGGEGHHHHHH | soluble |
| MSLKIDSIIFDLDGTLWNSIEGVCEAWKVVLKRHSNINKIITPKDIKASMGLQIDEIGKLLFPEEDEKMQLQLMNECCDEEKLYLGEHGGKLFAKLEPTLNKLSQKYKLFIVSNCEDGYIQSFFKAHGLNKYFTDFECSGVTGLSKGENNKLIIKRNSLKNPVYVGDTLKDFESAKIANIPFVYARYGFGDVNEYDYVIDSFEEMLTLDEGHHHHHH | soluble |
| MSLKIESNAFRLIEPGVFKKDTLTHDFEEKDIIVKPTKASVCHADLRYYTGNRRPEALAKKLPMALFHEGIGIVEDSKHPDFQQGDKVVIVPNIPSHLRKGTYPTTSFQDNYDENAVFMGSGFDGICQDRMVVSGDNVVKVPTDLDEDVALLAELCSVSLFPINQLDEITTETSPQVAIFGDGPVGYLAATALHYIYGIDKANLIVFGAVQEKLAAFEDFATTHLVFDFDFNQYRGVHTVFECTGGKFSESAINQAIDLIDRQGHIVLMGVTEERVGINTRDVLEKGLTFSGSSRSTKREFEQLIHAFSNKQYQQALRQLIPETYYHIHDTSDLKEAMDDTAAHKGWKKTYLQYHEGHHHHHH | soluble |
| MSLKIFEFVPPTDKEIEEAQLKLGFKFSPEYIEFIKSGYDLGDAPIEALEISNPPSHADIFETLANARKYFQMPSEMCPICEDNSDYYCLNQKGEVVFWSHNGTTSEKWANVTVWRNQMATEVEGHHHHHH | soluble |
| MSLKIGIVKHLNARPLTWGFEKNKKHEIVPENPAILKDYLLNGTIDLGLISSIECIRNDHVLNTYYGTGVCAREKVRSILFFKNKRENFPPKQILTDNGSKTSVALVRVLIYEESGLIPYVEPTDSKLIQEKISNGIGSHMLFGDNALLAKWNPEFYEVKDLAQWWNELTGLGFIFALWASKKSLKLDDLIFIQSLEYGVSHIEEIISHESRLSSTLVREYLTKELHYKITEEDQKGFLLFREKCSQLNLLEGHHHHHH | soluble |
| MSLKIGKIVSVNFNQFRVKISSEIRGNSVNLAGTVYYFGNIGSYLKTTNSVGEQLICEVMSIFDSDTKLDSAAYDFDSNRELLLKPIGTITRDDRFNLGVGIFPGIYSEVNVVTFEDMELILQTGKDKELSKAIHQSFFLGESKNLINYPIDISINSFFNIHSAVLGNSGSGKSNTIAHIIQEIHKKKNNSAIGSRILIFDVNGEYKNAFTGHEISPYIKVRLLKPNIEATEDGVEPFYLPHFLMNIDEWSSFLMATDATQRPFWDKVLQESYKFYMIATHEGDDRQKLINYLRFKICNLIHILQAQGDSDTAIITTAQGILYGILTLIEMDDDLQRACQQEGVLQDLHDLNASCTIDWGRNDGKLMRAVELVENRINKDTLREVMDYRASGEEYFNYEFLKQAANLTLLEEDARGNGRVREYTSTMMTRLDFFLDNPDCAFMRKSPVGATNIDQYLDWLWQSDKTVPEKTNMVIIDTSELSKDALETLTSVTSRLHFTSRKKLKGSARREKPIHLVLDEAHRYIKKDSKYLLRENIFEQIAREGRKYALYLLVSSQRPSELSETVLSQCSNFIIHRIQNEIDMKYVYAILPYFSDDFANKIKQSVPGEALIFGNCVSMPLHVRVKQAYPEPNSENCKVHEEWFKEGHHHHHH | soluble |
| MSLKIIIAGAGNVGTHLAKLLSREKQDIILMDDDEEKLSALSANFDLLTVTASPSSISGLKEVGVKEADLFIAVTPDESRNMTACMLATNLGAKKTVARIDNYEYLLPKNKEFFRKLGVDSLIYPEMLAAKEIVSSMRMSWVRQWWEFCGGALILIGTKMREKAEILNIPLHQLGAPDIPYHVVAIKRGTETIIPRGDDVIKLHDIVYFTTTRKYIPYIRKIAGKEDYADVRNVMIMGGSRIAVRTAQYVPDYMQVKIVDNDINRCNRLTELLDDKTMIINGDGRDMDLLIEEGLKNTEAFVALTDNSETNILACLAAKRMGVEKTVAEVENIDYIGMAESLDIGTVINKKMIAASHIYQMMLDADVSNVKCLTFANADVAEFTVPAGAKITKNLIKDLGLPKGTTIGGMIRNGEGVLVTGDTLIRPGDHVVVFCLSMMIKKIEKFFNEGHHHHHH | soluble |
| MSLKIILPVKPISQLFPIPFVMGCEGVSAAMLLQFNNYDIKATQIMSHWPKHPTNPYKGYVGHPLLVKFGHHQTIFPDAFAPFLKQYDSRIVDGTGTSLNQLEKFIDKGQPVIIYHTSLGSKPLRRVFHFDNQPTKLVSNIHVTLLIGYDDDYYYYIDPLWSRLSKFVIFPSIIPNSKQIIKIKKHTLENSYNAPGKKCIYIDNEGHHHHHH | not soluble |
| MSLKIKCILIEDEISNEKELYFILRRYDDIEIVGMVQNTDEGIDLVKKLRPQAVFLDINVPNFNGIKLAEEIKDVDSTIAVIFVTAYDKYAVAAFEIKALDYILKPFSIARIEKAVERLKEYINVNKSMKEKLFELICEFNNMERKYIINKIPCENKGKIVLVDVNDIYFFYIKSEKTYVKLNDIIYVTSSTLNDMEKKTGFFRAHRSYLVNLNKIFEIYSWFNGTYKLIMSDYRKSEIPVSRGNVRKLKEIINIEGHHHHHH | not soluble |
| MSLKILVIGPSWVGDMVMSQSLYQRLKQQHPDAQIDVLAPAWCKPILERMPEVNQAIEMTIGHGAFNLLGRRAIGCELRDNRYTHAIVLPNSAKSALIPWFANIPKRTGWKGEFRYGLLNDLRPDKRVFQYMVERYVALAHPKATMLADVSLEHCPRPKLVIDAIVQQAARQRLSLVSSRPVIGLCPGAEFGPAKRWPDHYYAEVARYAIEQGFQVWLFGSAKDHSVTTQIQQALSEEQREYCANLAGETSLIEAVDLLAACHTVVSNDSGLMHVSAAVGCNIVAIYGSSSPKYTPPLTDKLAVVHTEIECRPCFKRVCPLEHLNCLNQLKPAQVIKALDKFIGKDSEGHHHHHH | soluble |
